The text below walks through data of article PMC3322178 (Biochemistry, 2009).

The target of assay [1] is ASF/SF2 (Homo sapiens) (UniProt Q07955). Particulars: cited from earlier work.
Assay [2] deals with T1, His-SRPK1(FL), full length SR protein kinase 1 (UniProt Q96SB4 1-655). In words: pull-down.
The target of assay [3] is T1, His-SRPK1(FL), full length SR protein …. In words: pull-down. The source holds these as a separate data set.

Like-named read-outs stand apart in the source and are kept apart here.

As usually defined, the Kd is the equilibrium constant for the complex coming apart. SRPK1 (from UniProt Q96SB4): the Kd in assay [1] was 50 nM.

B1: GST-ASF(RRM2)-Q135A (domain or fragment, human, UniProt Q07955 105-196, looked up)
chain: GGAPRGRYGPPSRRSENRVVVSGLPPSGSWADLKDHMREAGDVCYADVYRDGTGVVEFVRKEDMTYAVRKLDNTKFRSHEGETAYIRVKVDG
For B1, the binding result in assay [2] is listed as “binds”.

B2: GST-ASF(RRM2)-W134A (domain or fragment, human, UniProt Q07955 105-196, looked up)
chain: GGAPRGRYGPPSRRSENRVVVSGLPPSGSAQDLKDHMREAGDVCYADVYRDGTGVVEFVRKEDMTYAVRKLDNTKFRSHEGETAYIRVKVDG
For the molecule B2, the binding result in assay [2] is on record as “binds”.

B3: GST-ASFΔβ4ΔRS (residues 1-179) (domain or fragment, human, UniProt Q07955 1-179, looked up)
chain: MSGGGVIRGPAGNNDCRIYVGNLPPDIRTKDIEDVFYKYGAIRDIDLKNRRGGPPFAFVEFEDPRDAEDAVYGRDGYDYDGYRLRVEFPRSGRGTGRGGGGGGGGGAPRGRYGPPSRRSENRVVVSGLPPSGSWQDLKDHMREAGDVCYADVYRDGTGVVEFVRKEDMTYAVRKLDNTK
Consider B3, for which the binding result in assay [2] was “binds”.

B4: GST-ASF(RS), ASF/SF2 RS domain residues 183-248 (domain or fragment, human, UniProt Q07955 183-248, looked up)
chain: HEGETAYIRVKVDGPRSPSYGRSRSRSRSRSRSRSRSNSRSRSYSPRRSRGSPRYSPRHSRSRSRT
With B4, the binding result in assay [3] was “binds”.

B5: GST-ASF(RRM2)-R154A (domain or fragment, human, UniProt Q07955 105-196, looked up)
chain: GGAPRGRYGPPSRRSENRVVVSGLPPSGSWQDLKDHMREAGDVCYADVYADGTGVVEFVRKEDMTYAVRKLDNTKFRSHEGETAYIRVKVDG
On to B5, for which, in assay [3], the binding result was “binds”.
